Molecular target: the molecule itself
Assay: non-reducing SDS-PAGE after 16 h at 37 C without reducing agent (self-association by disulfide bonds)
Experimental: Samples of T7 variants were prepared according to a procedure described in Example 4. T7 RNA polymerase and variants thereof were analyzed by gel electrophoresis on polyacrylamide gels containing sodium dodecylsulphate (SDS). Gradient gels (NuPAGE, 4-12%, Bis-Tris Gel, Invitrogen) were used. Typically, protein samples (0.26 mg/ml, 18 μl) were mixed with 6 μl of NuPAGE LDS (Lithium dodecyl sulfate; LDS may also be substituted by sodium dodecyl sulfate) sample buffer, (4×, Invitrogen). After heating for 2 min at 85° C., samples (20 μl) were applied on the gel. The total amount of protein in a single lane of the gel was between 1 μg and 3 μg. Gels were run in SDS Running Buffer (1×MES, Invitrogen) at 200 V for 1 hour.
Further, samples of wild-type T7 and T7 variants (0.2 to 0.3 mg/ml each) were incubated at 37° C. for 16 hours in 25 mM Tris/HCl, pH 7.5 (adjusted at 25° C.), 0.1 mM EDTA, 100 mM NaCl. Aliquots were removed and applied on the SDS gels under reducing conditions or under non-reducing conditions. After incubation a sample of each treated preparation was subjected to SDS polyacrylamide gel electrophoresis as described in Example 5. Results are depicted in FIG. 2 (reducing reagents absent) and FIG. 3 (10 mM DTT added).
With reference to FIG. 2 (reducing reagents absent), and in reference to Examples 5, 6, and 7, a stained SDS polyacrylamide gel is shown. […]

B1: T7 variant #8 [Cys125Ser, Cys347Ser, Cys492Ser, Cys515Ser, Cys723Ser, Cys839Ser] including His6-tag (enzyme)
chain: MNTINIAKNDFSDIELAAIPFNTLADHYGERLAREQLALEHESYEMGEARFRKMFERQLKAGEVADNAAAKPLITTLLPKMIARINDWFEEVKAKRGKRPTAFQFLQEIKPEAVAYITIKTTLASLTSADNTTVQAVASAIGRAIEDEARFGRIRDLEAKHFKKNVEEQLNKRVGHVYKKAFMQVVEADMLSKGLLGGEAWSSWHKEDSIHVGVRCIEMLIESTGMVSLHRQNAGVVGQDSETIELAPEYAEAIATRAGALAGISPMFQPCVVPPKPWTGITGGGYWANGRRPLALVRTHSKKALMRYEDVYMPEVYKAINIAQNTAWKINKKVLAVANVITKWKHSPVEDIPAIEREELPMKPEDIDMNPEALTAWKRAAAAVYRKDKARKSRRISLEFMLEQANKFANHKAIWFPYNMDWRGRVYAVSMFNPQGNDMTKGLLTLAKGKPIGKEGYYWLKIHGANCAGVDKVPFPERIKFIEENHENIMASAKSPLENTWWAEQDSPFCFLAFSFEYAGVQHHGLSYNCSLPLAFDGSCSGIQHFSAMLRDEVGGRAVNLLPSETVQDIYGIVAKKVNEILQADAINGTDNEVVTVTDENTGEISEKVKLGTKALAGQWLAYGVTRSVTKRSVMTLAYGSKEFGFRQQVLEDTIQPAIDSGKGLMFTQPNQAAGYMAKLIWESVSVTVVAAVEAMNWLKSAAKLLAAEVKDKKTGEILRKRSAVHWVTPDGFPVWQEYKKPIQTRLNLMFLGQFRLQPTINTNKDSEIDAHKQESGIAPNFVHSQDGSHLRKTVVWAHEKYGIESFALIHDSFGTIPADAANLFKAVRETMVDTYESSDVLADFYDQFADQLHESQLDKMPALPAKGNLNLRDILESDFAFA
notes: also called six-fold mutant; sextuple T7 variant; not shown: N-terminal His6-tag with linker
binding result: no binding (tested: 2.9 µg of protein per lane)

— patent US20120252071A1 (ROCHE DIAGNOSTICS OPERATIONS, published 2012)
